Data: publication PMC3836802, “LOV Takes a Pick: Thermodynamic and Structural Aspects of the Flavin-LOV-Interaction of the Blue-Light Sensitive Photoreceptor YtvA from Bacillus subtilis” (PLoS ONE, 2013)
Where a chain is given by its changes, count along the chain named.

How the values were obtained:
[1] = target: T1, YLOV (Apo-YLOV; LOV domain of YtvA, aa 1-128) (Bacillus subtilis, UniProt O34627, M1G); experiment: isothermal titration calorimetry; assay type: binding; conditions: 25 °C; 20 mM Tris-HCl pH 7.5, 150 mM NaCl, 500 µM TCEP; dark; apoprotein titrated into flavin; single-site global fit; brackets 95% confidence interval
T1 construct: gene pfyP; LOV domain with N-terminal cap, aa 1-128; apo form in monomer-dimer equilibrium; 15N-labelled for ITC
T1 sequence (O34627 1-128 M1G): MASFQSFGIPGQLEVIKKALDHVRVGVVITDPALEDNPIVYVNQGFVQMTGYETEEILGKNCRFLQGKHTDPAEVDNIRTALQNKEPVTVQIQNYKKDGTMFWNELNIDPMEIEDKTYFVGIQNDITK
From the text: isothermal titration calorimetry on YLOV (Apo-YLOV; LOV domain of YtvA, aa 1-128)

YtvA (Bacillus subtilis) = YtvA (Bacillus subtilis) (UniProt O34627); conditions: cited from earlier work
[2] = target: YtvA LOV domain 21-147 (Bacillus subtilis) (UniProt O34627); conditions: cited from earlier work
[3] = target: the molecule itself; experiment: AUC; sedimentation velocity, 45,000 rpm, 20 °C, absorbance at 280 nm; Apo-YtvA at 15, 30 and 60 µM in buffer H (20 mM K-phosphate pH 6.5, 50 mM NaCl, 5 mM DTT, 0.1% azide); c(S) analysis with Sedfit; dimer to monomers
[4] = target: the molecule itself; experiment: AUC; sedimentation velocity, 45,000 rpm, 25 °C, absorbance at 280 nm; Apo-YLOV at 17.5, 35 and 70 µM in buffer G (20 mM Tris-HCl pH 7.5, 150 mM NaCl, 500 µM TCEP); c(S) analysis with Sedfit; dimer to monomers; the KD is called only an estimate

For `Cc1cc2nc3c(=O)[nH]c(=O)nc-3n(C[C@H](O)[C@H](O)[C@H](O)COP(=O)(O)OP(=O)(O)OC[C@H]3O[C@@H](n4cnc5c(N)ncnc54)[C@H](O)[C@@H]3O)c2cc1C` [FAD], the Kd [1] was 224 nM.

In the case of `Cc1cc2nc3c(=O)[nH]c(=O)nc-3n(C[C@H](O)[C@H](O)[C@H](O)COP(=O)(O)O)c2cc1C` [FMN], the Kd [1] is reported as 715 nM.

`Cc1cc2nc3c(=O)[nH]c(=O)nc-3n(C[C@H](O)[C@H](O)[C@H](O)CO)c2cc1C` [RF] showed a Kd [1] of 351 nM.

For YtvA (from UniProt O34627), the Kd (YtvA (Bacillus subtilis)) is listed as less than 300 nM.

In the case of “YtvA LOV domain 21-147 (from UniProt O34627)”, the Kd [2] is listed as less than 200 nM.

B1: Apo-YtvA (deflavinated full length YtvA, aa 1 – 261) (natural protein, Bacillus subtilis, UniProt O34627 1-261, looked up)
chain: GASFQSFGIPGQLEVIKKALDHVRVGVVITDPALEDNPIVYVNQGFVQMTGYETEEILGKNCRFLQGKHTDPAEVDNIRTALQNKEPVTVQIQNYKKDGTMFWNELNIDPMEIEDKTYFVGIQNDITKQKEYEKLLEDSLTEITALSTPIVPIRNGISALPLVGNLTEERFNSIVCTLTNILSTSKDDYLIIDLSGLAQVNEQTADQIFKLSHLLKLTGTELIITGIKPELAMKMNKLDANFSSLKTYSNVKDAVKVLPIM
notes: YtvA, blue-light photoreceptor of Bacillus subtilis, full length, residues 1-261 (LOV domain aa 21-126, Jα-helix aa 127-147, STAS domain aa 148-261); Met1 replaced by the Gly left after TEV cleavage; source: TEV cleavage; not shown: His tag, N-terminal, cleaved
For B1, the “stoichiometry N” value [3] was 2.

B2: Apo-YLOV (deflavinated extended LOV domain of YtvA, aa 1 – 128) (domain or fragment, Bacillus subtilis, UniProt O34627 1-128, looked up)
chain: T1 sequence (O34627 1-128 M1G) with M1G
notes: YtvA, blue-light photoreceptor of Bacillus subtilis, residues 1-128 (N-terminal cap and LOV domain); TEV cleavage leaves a Gly at the N-terminus; the forward primer reads Gly-Ala-Ser-Phe-Gln, so the Gly stands in the place of Met1; also called YtvA-LOV domain; not shown: His tag, N-terminal, cleaved
With B2 the Kd [4] was roughly 14000 nM and the “stoichiometry N” value [4] was 2.
